Experimental data as given in paper PMC3735183.

Target: human secretory immunoglobulin A (SIgA) (human) (UniProt P01833)
Assay: SPR

UniProt P01833, sequence (P01833 whole entry, looked up): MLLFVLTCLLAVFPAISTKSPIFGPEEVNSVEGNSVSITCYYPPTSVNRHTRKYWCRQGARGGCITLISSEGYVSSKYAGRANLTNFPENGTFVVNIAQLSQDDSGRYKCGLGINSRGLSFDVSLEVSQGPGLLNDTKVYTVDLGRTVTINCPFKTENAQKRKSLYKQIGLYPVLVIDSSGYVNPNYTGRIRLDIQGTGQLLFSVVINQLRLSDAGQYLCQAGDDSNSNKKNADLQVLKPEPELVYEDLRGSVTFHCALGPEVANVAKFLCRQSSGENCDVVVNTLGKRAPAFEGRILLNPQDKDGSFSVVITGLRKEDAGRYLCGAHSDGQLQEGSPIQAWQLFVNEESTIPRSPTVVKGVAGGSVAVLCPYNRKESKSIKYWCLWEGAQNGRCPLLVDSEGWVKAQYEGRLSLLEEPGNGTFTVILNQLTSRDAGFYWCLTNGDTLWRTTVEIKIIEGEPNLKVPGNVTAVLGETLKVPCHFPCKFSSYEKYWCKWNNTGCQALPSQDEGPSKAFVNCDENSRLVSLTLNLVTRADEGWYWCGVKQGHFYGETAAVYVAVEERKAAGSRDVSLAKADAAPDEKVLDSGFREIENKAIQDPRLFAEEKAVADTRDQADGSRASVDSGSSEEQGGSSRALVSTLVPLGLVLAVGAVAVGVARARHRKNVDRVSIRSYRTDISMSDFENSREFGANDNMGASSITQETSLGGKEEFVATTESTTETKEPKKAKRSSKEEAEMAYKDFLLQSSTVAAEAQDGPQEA

“EsiB (E. coli secretory immunoglobulin A-binding protein), recombinant, without signal peptide (natural protein)” showed a Kd of 30.2 µM, a koff of 0.042 s⁻¹ and a kon of 1390 M⁻¹ s⁻¹.
